According to the DeepSol protein solubility set:

assay: soluble on expression in E. coli; label from the status in PepcDB or PDB records

| Sequence | soluble on expression in E. coli |
| --- | --- |
| MSSPRHVFYISDRTGLTAENIGEALLNQFGNLSFKRHTHPFVDTPEKARAVVEKVNRSRQENGQRPIAFVSVVDDEIRRIIKGADAFQINFFETFLGLLEKELNTEATASGQGHHSIGNTKRYDARMEAVNFSLNHDDGVSDKNLQEADVILMGVSRSGKTPTCLYLALQYGIRAANYPLIPDDLESADLPRMVKPYRDKLFGLTIQPERLQAIRQERRPNSTYAKIDTCRSEVADAQSMFRRHGIPFANTTDKSVEELAVHILQACKLKRRF | not soluble |
| MGSDKIHHHHHHMTMPVPHAGPTPLCSNRMQVHSITQETPDVWTISLVNHDFYPYQPGQYALVSIANSEETLRAYTISSSPGLSRFITLTVRRLDDGVGSRWLTQTLKIGDYLWLSDAQGEFTCANAVSDRYLMAAAGCGVTPIMSMCRWLLANKPQIDIHIIFNVRNPQQVIFASEWQDLVQRYPQQLHLTLMAEFDAAPGFLAGRISGDLLVERVPDITNRTVMTCGPAPYMNQIETLSQQLGVASNRIFKEQFRPTDEVVDEDADQITLTISRPLKNLRVPVGISLLAALEANKVHVLAACRAGVCGSCKTRVLSGKYTTTSTMTLTPAEIEQGYVLACSCQLQGDTVLA | not soluble |
| MLRLFKIQKAPLSQFSKASNEIVKDFIEKMEKAAGSGDKVKFSDCFTEDFQFFACSFTANKAQFVEKHLTNPNPEPVIPKYSNFDENDSKIKFTVSRRVGPEVNIVDFDLLRENDGPWRLQWGKVTTCP | not soluble |
| PLSQVVRFHASSGTTGKPTVVGYTANDIRNWVESLCRALVSCGVSSDDIMQIAYGYGLFTGGLGFHYAAERLGATVLPISAGNTARQIELMKDLGSTVMACTPSYMIYLAEYASQMGVDIAEDTNLRAGIFGAEPWSEETRKRIEDKTGITAYDVYGTSELSGPLFTECTER | not soluble |
| MSLNPRPGKVVIYSEPDVSEKCIEVFSDIQDCSSWSLSPVILIKVVRGCWILYEQPNFEGHSIPLEEGELELSGLWGIEDILERHEEAESDKPVVIGSIRHVVQDYRVSHIDLFTEPEGLGILSSYFDDTEEMQGFGVMQKTCSMKVHWGTWLIYEEPGFQGVPFILEPGEYPDLSFWDTEAAYIGSMRPLKMGGRKVEFPTDPKVVVYEKPFFEGKCVELETGMCSFVMEGGETEEATGDDHLPFTSVGSMKVLRGIWVAYEKPGFTGHQYLLEEGEYRDWKAWGGYNGELQSLRPILGDFSNAHMIMYSEKNFGSKGSSIDVLGIVANLKETGYGVKTQSINVLSGVWVAYENPDFTGEQYILDKGFYTSFEDWGGKNCKISSVQPICLDSFTGPRRRNQIHLFSEPQFQGHSQSFEETTSQIDDSFSTKSCRVSGGSWVVYDGENFTGNQYVLEEGHYPCLSAMGCPPGATFKSLRFIDVEFSEPTIILFEREDFKGKKIELNAETVNLRSLGFNTQIRSVQVIGGIWVTYEYGSYRGRQFLLSPAEVPNWYEFSGCRQIGSLRPFVQKRIYFRLRNKATGLFMSTNGNLEDLKLLRIQVMEDVGADDQIWIYQEGCIKCRIAEDCCLTIVGSLVTSGSKLGLALDQNADSQFWSLKSDGRIYSKLKPNLVLDIKGGTQYDQNHIILNTVSKEKFTQVWEAMVLYTEGHHHHHH | not soluble |
| MGSDKIHHHHHHMEEHFLYVPYYNRTRRIRVLLPKDYYTDTWDSYAVLYMHDGQNIFYSKESYSGYSWKIIPTIKHHKEFPKIIIVGIDNSGVDRLDEYGPWRTDVGSSPEIKKCGGKGMEYGKWVVEIVKPFIDQHYRTKPQKEHTLLAGSSMGGIITAYMGSAYPQIFGHLGVFSLASWFSEKDFLHFIHHNPIDKNSKVFIQVGTKEGDDVDSLFISNMNQAYIDCTLHYYQALLRTGHPLDNIRLRMMANEIHHEKHWADHFVEFLHFSLL | not soluble |
| MKELVVVAIGGNSIIKDNASQSIEHQAEAVKAVADTVLEMLASDYDIVLTHGNGPQVGLDLRRAEIAHKREGLPLTPLANCVADTQGGIGYLIQQALNNRLARHGEKKAVTVVTQVEVDKNDPGFAHPTKPIGAFFSDSQRDELQKANPDWCFVEDAGRGYRRVVASPEPKRIVEAPAIKALIQQGFVVIGAGGGGIPVVRTDAGDYQSVDAVIDKDLSTALLAREIHADILVITTGVEKVCIHFGKPQQQALDRVDIATMTRYMQEGHFPPGSMLPKIIASLTFLEQGGKEVIITTPECLPAALRGETGTHIIKT | soluble |
| GPGSMSINFSAPYLVTEMEEKVVTSLPSGDTASGSGESTASPPIVISAAVPYTEEEKKLLTEQLRRHQRQQSQGDDDSSWNETTLPFISSMVEKVLQLAAQNRESDSTKDSGSGDENKPQEKANATDDVAGADAVSKVDTFVEDNDYVLEQLRLQPWPFFTLPRLCEILADPYKYNSIGDKLRGEKLQSAIRRCVLVSAPLNCDVRNNSS | not soluble |
| MWSVTDSPLDDAIQEAKSAAQKAGFDTETFAAVQSKEGRTSFAFELEGLGSASSVSELEEAIEQIEGVDAKIVYPSAMAWISASRTLDPTLIVDAFQQHGVTATLTDSSLRRRLAWTDVEEGRYRRARARRFGSRVDEESRRFEIARREGFLHKRDETTRVVETTEVLFTARSLMTKAR | not soluble |
| WAALHEGLNIRQAEVHGMSQRGGAVQSHLRISDQELFADLIGLGTGDLILSVEPLEALRYLPYLAPDGRIVTSLDPFVNMTGYPPMEEIEAELGKTGRPVLVHAADLAKDAGSARASNMVMLGAGAPFAGIAPSKLEASIEALFSTKGQEVVDINIRAFRKGLQL | not soluble |
| MSLNGATQGLLGWSSRGEIAAEIADAKQSQSVYVDKIANSSLAEIQADPTLMQFALSGGAAAFKVNCIQCHGSGAEGGQGYPNLNDDDWMWGGSVDDIYTTVKHGIRFADDADTRASEMPAFGDILKSDEIRAVAAYVVSLTGTPSNPALVEPGKQLFADNCASCHGEDAKGNREFGAPNLADAIWLKAHGEEGIVAQIRSPKHGVMPAWGERLGDTTVKQLAIFVHSLGGGEGHHHHHH | not soluble |
| MADRPIEIVDRQNVLTVHLPGTYTVMYDARYCYVSYIPVSETVAEFTLTGFKYPLTNCHISRGSTLCISNELIQSSGTFSFSEGILMMIRSSDSLEHHHHHH | not soluble |
| MSLTTPTMIAAVVEEANGPFVLRKLARPQPAPGQVLVQIEASGTNPLDAKIRAGEAPHAQQPLPAILGMDLAGTVVAVGPEVDSFRVGDAVFGLTGGVGGLQGTHAQFAAVDARLLASKPAALTMRQASVLPLVFITAWEGLVDRAQVQDGQTVLIQGGGGGVGHVAIQIALARGARVFATARGSDLEYVRDLGATPIDASREPEDYAAEHTAGQGFDLVYDTLGGPVLDASFSAVKRFGHVVSCLGWGTHKLAPLSFKQATYSGVFTLHTLLANEGLAHFGEMLREADALVQTGKLAPRLDPRTFSIAEIGSAYDAVLGRNDVPRQRGKIAITVEPQFNLHEQREGHHHHHH | soluble |
| MTGQRDGASLHDALTDKQAAVLRAAFHAGYFEWPRESTAEDLAADMGVTAPTLHNHLRRAQQKLLEHHHHHH | not soluble |
| MKYRDLRDFLAQLERQGELKRITAPVSTRLEMTEIADRVLRAGGPALLFENARHNDAPADMPVLANLFGTPRRVAWGMGADDVGALRETGELLASLREPEAPKGLRDALAKVSMLKAALWDMSPKTVRSAACQEIVWEGADVDLGRLPIQTCWPGDVAPLLAWGLVITRGPNARRQNLGIYRQQPLGPNKLIMRWLSHRGGALDFRDHAQAHPGKPFPIAVALGADPATILGAVTPVPDTLSEYQFAGLLRGSRTEVVKALGSDLSVPASAEIVLEGHLLPADDPRAVAAAVPEGANPPPATGYEMALEGPYGDHTGYYNEQDWFPVFTVDRITMRRNPIYHSTYTGKPPDEPAVLGVALNEVFVPLLRRQLPEIVDFYLPPEGCSYRLAVVSIRKQYAGHAKRVMFGLWSVLRQFMYTKFIVVVDEDIDPRDWTEVVWAMTTRMDPVRDTVLVENTPIDYLDFASPVSGLGGKMGLDATNKWPGETSREWGTPIHMDEAVKRRVDAMWDTLGLAAALEHHHHHH | not soluble |
| MRHLKSFYVFHVAASSSSYTEAADKLNITHGAVSKQIKQLEQYLSQPLFLKEGRKSVLTAEGELLKTYTKTAFQTLETGVNTLIQEKHQHLEVSCEPTLTMRWLMPRLAAFNDEHRADVR | not soluble |
| MQALTTYKCIEKGIVVWLTGLPGSGKTTIATRLADLLQKEGYRVEVLDGDWARTTVSEGAGFTREERLRHLKRIAWIARLLARNGVIVICSFVSPYKQARNMVRRIVEEEGIPFLEIYVKASLEEVIRRDPKGLYKKALKGELENFTGITDPYEPPENPQLVLDTESNTIEHNVSYLYSLVKAVIE | soluble |
| DWDSREKEAQRVAQRVTARTVSEIEYYHRESTQIAQALVENQARIEGIYKYFSLSMPDYFYWQLERKASPYISVSLYENVDDLYVRNDFVTGVAIAFQDYKEVYVSTKDKRSGEKIRAEDFKPAGNSFAIPVSDPVSDQDLGVIYISLDPAVLYHAIDNTRGHTPMAVTVTSPFDTEIFHMGETVDKESENWLVGLTSHGYQVQVAVPKN | not soluble |
| MERQQQQQQQLRNLRDFLLVYNRMTELCFQRCVPSLHHRALDAEEEACLHSCAGKLIHSNHRLMAAYVQLMPALVQRRIADYEAASAVPSVAAEQPGVSPSGS | soluble |
| MSLNVKIAALASHSALDVFDGAKDEGFQTIGLCKKGRERPYLEFKAIMDKCIILEDFKEIISDKVQSILLSENAIIVPNRSLAVYVGYDGIEKMKTKVFGNRYMLRWEERIGEKNYYKILNEAKISIPKLFKPEEIDRPVIVKLPEAKRKVERGFFFAVNKEDFEAKLNELLRNNVIDNEGLKNMVIEEFVFGAHFNLNYFYSPIFNRLELISVDRRIQSDWDSLYRLPADIQIKLGRIPKLIEVGHEPVTIRESLLEKVFEIGYRFVDATQKLEPPGIIGPFTLQVMVTPDLDLVVYDVAPRIGGGTNVYMGTGSQYSKFYFGKPISLGRRIALEIKHAIINNLTEKILTEGHHHHHH | soluble |
| MPPIPSRARVYAEVNPSRPREYWDYEAHMIEWGQIDDYQLVRKLGRGKYSEVFEGFKMSTDEKVVVKILKPVKKKKIKREIKILENLRGGTNIITLLDVVKDPISRTPALIFEHVNNSDFKQLYQTLSDYDIRYYLYELLKALDFCHSQGIMHRDVKPHNVMIDAEKRELRLIDWGLAEFYHPRQDYNVRVASRYFKGPELLVDYQCYDYSLDMWSLGCMLASMIFRKEPFFHGHDNYDQLVRIAKVLGTDELYEYIARYHIDLDPRFNDILGRHSRKRWERFIHAENQHLVTPEALDFLDKLLRYDHAERLTAQEAMGHEYFRPVVEAHARANGTEQADGQGASNSASSQSSDAKIDGA | not soluble |
| EDPGGITRTKGERVDATVDGLPDGVSPEDAAKFTSVLNKLIKDDPELKKSVEVKTLKAASKTKRTKEVVNWRGGGGFQVAHLSPACFDYDPALDRVMLTAAATGETLIESVAANLGFTLLHPDDDYVFDARRGNALLKVVEGVATPQIVDWLASQIQPGETIVLAATTVMDGVRQHLRKAVKGSRVVALPDDIFRYSEGGNK | not soluble |
| MGSDKIHHHHHHMTCAFARTVESRFAELTPTAKRIASYMLANLDRLGLETADQIAQQTGTSGISVGRFLRSVGYRNLDDLKRELRGGADRPWMITDRLDEYRRTNGTNGTAGTQAAAIHSDDRALASSLDRELDAIRHVYRLAEEPVFAQVADRIAHADAVFILGIQSTRGISNAFSSYLEYLRPRVFYSDGQSGSYVDSLNSEFERPYCIVTDVRAYSRSARRYCQAAAERGQPFALVTDLYCPWAREWPADLLQVKTDVGQFWDSLAPLTCLFNLLITAVVDRLGPAIDRRVARNRELQHTFDQFES | not soluble |
